In patent US20180155451A1 (published 2018):
Changes are numbered by the printed parent chain. In names and notes the source's numbering stands. Where two headings read alike, the source gives them in different places.

Columns and labels:
FcγRIIb = target: T1, FcγRIIb (human, UniProt P31994 43-217); assay: SPR (Biacore), relative binding; compared with GpH7-A5/GpH7-B12/GpL16-k0
T1 construct: extracellular domain; for crystallography expressed with Kifunesine and trimmed with Endo F1; also called FcgRIIb; FcgR2b; not shown: His tag attached to the C terminus
T1 sequence (looked up): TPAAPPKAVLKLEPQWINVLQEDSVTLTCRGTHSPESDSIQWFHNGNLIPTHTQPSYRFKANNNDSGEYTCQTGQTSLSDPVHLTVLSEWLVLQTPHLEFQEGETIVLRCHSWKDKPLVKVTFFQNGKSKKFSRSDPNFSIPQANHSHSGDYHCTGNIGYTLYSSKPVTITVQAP
Method: Analysis of interaction between objective antibody and the FcγR was carried out using Biacore T100 (GE Healthcare). HBS-EP+ (GE Healthcare) was used as the running buffer, and the measurement temperature was set to 25° C. Chips produced by immobilizing the antigen peptide by the amine coupling method to a Series S Sencor Chip CM5 (GE Healthcare), or alternatively, chips produced by allowing preliminarily biotinylated antigen peptides to interact with and immobilize onto a Series S Sensor Chip SA (certified) (GE Healthcare) were used. Antibodies of interest were captured onto an antigen peptide-immobilized chip, and allowed to interact to each FcγR diluted with running buffer. To regenerate and repeatedly use the chip, the antibodies captured on the chip were washed off by reacting 10 mM glycine-HCl, pH 1.5.

FcgRIIb [1] = target: T2, FcgRIIb (human, UniProt P31994 43-217); assay: SPR (Biacore); KD of H240-Kn120/H240-Hl068/L73-k0 divided by KD of the sample
T2 construct: extracellular domain; also called FcγRIIb; CD32B; not shown: C-terminal His tag
T2 sequence (looked up): T1 sequence (looked up)
Method: (§1) The variants described above were assessed for their binding to FcgR according to the method described in Reference Example 8.
(§2) Analysis of interaction between obj ective antibody and the FcγR was carried out using Biacore T100 (GE Healthcare), Biacore T200, Biacore A100, and Biacore 4000. HBS-EP+ (GE Healthcare) was used as the running buffer, and the measurement temperature was set to 25° C. Chips produced by immobilizing the antigen peptide by the amine coupling method to a Series S sensor Chip CM5 (GE Healthcare), chips produced by allowing preliminarily biotinylated antigen peptides to interact with and immobilize onto a Series S Sensor Chip SA (certified) (GE Healthcare), chips produced by immobilizing Protein L (ACTIGEN, BioVision) to Series S Sencor Chip CM5 (GE Healthcare), or chips produced by immobilizing Protein A/G (Thermo Scientific) to Series S Sencor Chip CM5 (GE Healthcare) were used. Antibodies of interest were captured onto these chips, and allowed to interact to each FcγR diluted with running buffer. To regenerate and repeatedly use the chip, the antibodies captured onto the chip were washed off by reacting 10 mM glycine-HCl, pH 1.5.

FcgRIIaH [2] = target: T3, FcgRIIaH (human, UniProt P12318 34-217); assay: as above
T3 construct: extracellular domain; H131 allotype; also called FcγRIIa H; FcgRIIa type H; not shown: C-terminal His tag
T3 sequence (looked up): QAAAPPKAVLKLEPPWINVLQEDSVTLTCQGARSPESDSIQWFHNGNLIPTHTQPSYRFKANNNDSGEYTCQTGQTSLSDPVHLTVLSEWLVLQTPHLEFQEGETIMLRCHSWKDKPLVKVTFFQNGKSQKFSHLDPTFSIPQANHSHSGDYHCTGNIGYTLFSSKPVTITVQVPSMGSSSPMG
Method: as §1, §2

FcgRIIIaV [3] = target: T4, FcgRIIIaV (human, UniProt P08637 17-208); assay: as above
T4 construct: extracellular domain; V158 allotype; also called FcγRIIIa V; not shown: C-terminal His tag
Method: as §1, §2

FcgRIIaR [4] = target: T5, FcgRIIaR (human, UniProt P12318 34-217); assay: as above
T5 construct: extracellular domain; R131 allotype; also called FcγRIIa R; FcgRIIa type R; not shown: C-terminal His tag
T5 sequence (looked up): T3 sequence (looked up) with H134R
Method: as §1, §2

FcgRIIIaF [5] = target: T6, FcgRIIIaF (human, UniProt P08637 17-208); assay: as above
T6 construct: extracellular domain; F158 allotype; also called FcγRIIIa F; not shown: C-terminal His tag
Method: as §1, §2

FcgRIIb [6] = target: T2, FcgRIIb; assay: SPR (Biacore), antibody captured on chip, FcgR as analyte
Method: as §1, §2

FcgRIIaH [7] = target: T3, FcgRIIaH; assay: as above
Method: as §1, §2

FcgRIIIaV [8] = target: T4, FcgRIIIaV; assay: as above
Method: as §1, §2

FcgRIIaR [9] = target: T5, FcgRIIaR; assay: as above
Method: as §1, §2

FcgRIIIaF [10] = target: T6, FcgRIIIaF; assay: as above
Method: as §1, §2

FcgRIa = target: T7, FcgRIa (human, UniProt P12314 16-292); assay: SPR (Biacore 4000), antibody captured on chip, FcgR as analyte; kd below the limit 5e-5 /s
T7 construct: extracellular domain; also called FcγRIa; FcγRI; not shown: C-terminal His tag
Method: as §1, §2

[11] = target: T8, FcgRIIa type R extracellular domain with C-terminal His tag (human, UniProt P12318 34-217); assay: SPR (Biacore), antibody captured on chip, soluble FcgR as analyte, kinetic 1:1 fit
T8 construct: extracellular domain; also called FcgRIIaR; FcgRIIa R; not shown: His tag at the C terminus
T8 sequence (looked up): T3 sequence (looked up) with H134R

[12] = target: T9, FcgRIIa type H extracellular domain with C-terminal His tag (human, UniProt P12318 34-217); assay: SPR (Biacore), antibody captured on chip, soluble FcgR as analyte; too weak for kinetics, KD from steady-state 1:1 equation
T9 construct: extracellular domain; also called FcgRIIaH; FcgRIIa H; not shown: His tag at the C terminus
T9 sequence (looked up): T3 sequence (looked up)
Method: (§3) KD can be calculated by substituting the values of Rmax, RI, and C into this equation. The values of RI and C can be determined from the sensorgram of the measurement results and measurement conditions. Rmax was calculated according to the following method.

[13] = target: T10, FcgRIIIa type V extracellular domain with C-terminal His tag (human, UniProt P08637 17-208); assay: as above
T10 construct: extracellular domain; also called FcgRIIIaV; FcgRIIIa V; not shown: His tag at the C terminus
Method: as §3

[14] = target: T9, FcgRIIa type H extracellular domain …; assay: as above; remark: listed apart in the source
Method: as §3

[15] = target: T10, FcgRIIIa type V extracellular domain …; assay: as above; remark: listed apart in the source
Method: as §3

[16] = target: T8, FcgRIIa type R extracellular domain …; assay: SPR (Biacore), antibody captured on chip, soluble FcgR as analyte, kinetic 1:1 fit; remark: listed apart in the source
Method: The variants were assessed for the binding activity to FcgR Ia, FcgR IIaR, FcgR IIaH, and FcgRIIb according to the method described in Reference Example 8.
as §2

T6 sequence (P08637 17-208): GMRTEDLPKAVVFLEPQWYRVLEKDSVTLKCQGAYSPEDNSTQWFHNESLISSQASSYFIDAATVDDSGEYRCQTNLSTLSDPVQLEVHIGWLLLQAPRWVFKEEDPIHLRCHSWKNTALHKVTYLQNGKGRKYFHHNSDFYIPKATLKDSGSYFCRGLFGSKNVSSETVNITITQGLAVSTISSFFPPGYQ
T10 sequence (P08637 17-208 F176V): as the sequence (P08637 17-208) above, with F160V counted along it
T4 sequence (P08637 17-208 F176V limits assumed): as the sequence (P08637 17-208) above, with F160V counted along it
T7 sequence (P12314 16-292): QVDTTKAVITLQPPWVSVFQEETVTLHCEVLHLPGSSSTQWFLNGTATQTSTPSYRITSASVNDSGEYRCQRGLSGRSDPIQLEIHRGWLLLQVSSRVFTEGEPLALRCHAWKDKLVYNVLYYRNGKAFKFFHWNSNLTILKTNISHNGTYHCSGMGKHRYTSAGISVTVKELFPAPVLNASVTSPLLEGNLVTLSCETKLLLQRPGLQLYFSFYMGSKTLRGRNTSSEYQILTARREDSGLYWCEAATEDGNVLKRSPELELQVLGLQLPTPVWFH

B1: GpH7-A5/GpH7-B41/GpL16-k0 (antibody, human IgG1, kappa)
heavy 1: not shown
heavy 2: QVQLVQSGAEVKKPGASVTVSCKASGYTFTDYEMHWIRQPPGEGLEWIGAIDPKTGDTAYSESFQDRVTLTADKSTSTAYMELSSLTSEDTAVYYCTRFYSYTYWGQGTLVTVSSASTKGPSVFPLAPSSKSTSGGTAALGCLVKDYFPEPVTVSWNSGALTSGVHTFPAVLQSSGLYSLSSVVTVPSSSLGTQTYICNVNHKPSNTKVDKKVEPKSCDKTHTCPPCPAPEDLGGPSVFLFPPKPKDTLMISRTPEVTCVVVDVSHEDPEVKFNWYVDGVEVHNAKTKPREEQYNSTYRVVSVLTVLHQDWLNGKEYKCKVSNKALRAPIEKTISKAKGQPREPQVYTLPPSRDELTKNQVSLTCLVKGFYPSDIAVEWESNGQPENNYKTTPPVLDSDGSFFLYSKLTVDKSRWQQGNVFSCSVMHEALHNHYTQESLSLSP
light: DIVMTQSPLSLPVTPGEPASISCQASESLVHSNRNTYLHWYLQKPGQSPQLLIYKVSNRFSGVPDRFSGSGSGTDFTLKISRVEAEDVGVYYCSQNTHVPPTFGQGTKVEIERTVAAPSVFIFPPSDEQLKSGTASVVCLLNNFYPREAKVQWKVDNALQSGNSQESVTEQDSKDSTYSLSSTLTLSKADYEKHKVYACEVTHQGLSSPVTKSFNRGEC
notes: L234D and P329R in the same H chain
**Q.** Does B1 bind (FcγRIIb)?
**A.** Result: binds

B2: H240-Kn120/H240-Hl073/L73-k0 (antibody, human IgG1, kappa)
heavy 1: QDQLVQSGAEVKKPGASVKVSCKASGFNIKDTYIQWVRQAPGQGLEWMGRIDPLRKQTKYREKFEGRVTITADTSTNTAYMELSSLRSEDTAVYYCVRSGREFDYWGQGTLVTVSSASTKGPSVFPLAPSSKSTSGGTAALGCLVKDYFPEPVTVSWNSGALTSGVHTFPAVLQSSGLYSLSSVVTVPSSSLGTQTYICNVNHKPSNTKVDKKVEPKSCDKTHTCPPCPAPEYYWGPMVFLFPPKPKDTLMISRTPEVTCVVVDVSDEDPEVKFNWYVDGVEVHNAKTKPREEQYNATYRVVSVLTVLHQDWLNGKEYKCKVSNKDLPAPIEKTISKAKGQPREPQVCTLPPSRDELTKNQVSLWCLVKGFYPSDIAVEWESNGQPENNYKTTPPVLDSDGSFFLYSKLTVDKSRWQQGNVFSCSVMHEALHNHYTQKSLSLSP
heavy 2: QDQLVQSGAEVKKPGASVKVSCKASGFNIKDTYIQWVRQAPGQGLEWMGRIDPLRKQTKYREKFEGRVTITADTSTNTAYMELSSLRSEDTAVYYCVRSGREFDYWGQGTLVTVSSASTKGPSVFPLAPSSKSTSGGTAALGCLVKDYFPEPVTVSWNSGALTSGVHTFPAVLQSSGLYSLSSVVTVPSSSLGTQTYICNVNHKPSNTKVDKKVEPKSCDKTHTCPPCPAPELLSGPSVFLFPPKPKDTLMISRTPEVTCVVVDVSHEEPEVKFNWYVDGVEVHNAKTKPREEQYNSTYRVVSVLTVLHQDWLNGKEYKCKVSNDALPKPIEETISKAKGQPREPQVYTLPPSRCELTKNQVSLSCAVKGFYPSDIAVEWESNGQPENNYKTTPPVLDSDGSFFLVSKLTVDKSRWQQGNVFSCSVMHEALHNHYTQKSLSLSP
light: DIQMTQSPSSLSASVGDRVTITCRASQDIHKYIAWYQQKPGQAPRLLIQYTSTLQPGVPSRFSGSGSGTDYTFTISSLQPEDIATYYCLQYEQLRTFGGGTKVEIKRTVAAPSVFIFPPSDEQLKSGTASVVCLLNNFYPREAKVQWKVDNALQSGNSQESVTEQDSKDSTYSLSSTLTLSKADYEKHKVYACEVTHQGLSSPVTKSFNRGEC
notes: Heterodimerized anti-epiregulin antibody; G236S in the Hl068 chain; also called H240-Kn120/H240-HI073/L73-k0
**Q.** With B2 as the binder, how does the “Relative KD” value (FcgRIIb [1]) read?
**A.** The value was 0.7.

**Q.** And the “Relative KD” value (FcgRIIaH [2])?
**A.** Its value is 2.

**Q.** And the “Relative KD” value (FcgRIIIaV [3])?
**A.** Its value is 0.2.

**Q.** What about the “Relative KD” value (FcgRIIaR [4]) of the same binder?
**A.** Its value is 1.3.

**Q.** What about the “Relative KD” value (FcgRIIIaF [5]) of the same binder?
**A.** The value was 0.3.

**Q.** And the Kd (FcgRIIb [6])?
**A.** Its Kd is 210 nM.

**Q.** What about the Kd (FcgRIIaH [7]) of the same binder?
**A.** Its Kd is 21 nM.

**Q.** What about the Kd (FcgRIIIaV [8]) of the same binder?
**A.** Its Kd is 1.8 nM.

**Q.** And the Kd (FcgRIIaR [9])?
**A.** The Kd was 15 nM.

**Q.** What about the Kd (FcgRIIIaF [10]) of the same binder?
**A.** Its Kd is 8.2 nM.

**Q.** And the Kd (FcgRIa)?
**A.** Its Kd is < 0.028 nM.

B3: IL6R-BP208/IL6R-L (antibody, human IgG1, kappa)
heavy: QVQLQESGPGLVKPSETLSLTCAVSGHSISHDHAWSWVRQPPGEGLEWIGFISYSGITNYNPSLQGRVTISRDNSKNTLYLQMNSLRAEDTAVYYCARSLARTTAMDYWGEGTLVTVSSASTKGPSVFPLAPSSKSTSGGTAALGCLVKDYFPEPVTVSWNSGALTSGVHTFPAVLQSSGLYSLSSVVTVPSSSLGTQTYICNVNHKPSNTKVDKKVEPKSCDKTHTCPPCPAPDLLGDDSVFLFPPKPKDTLMISRTPEVTCVVVDVSDEDGEVKFNWYVDGVEVHNAKTKPREEQYNSTYRVVSVLTVLHQDWLNGKEYKCKVSNKALPRPIEKTISKAKGQPREPQVYTLPPSRDELTKNQVSLTCLVKGFYPSDIAVEWESNGQPENNYKTTPPVLDSDGSFFLYSKLTVDKSRWQQGNVFSCSVMHEALHNHYTQESLSLSP
light: not shown
notes: Homodimer; IL6R-BP208 is IL6R-B3 with E233D, G237D, P238D, H268D, P271G and A330R
**Q.** For B3, which Kd [11] is on record?
**A.** Its Kd is 850 nM.

**Q.** And the Kd [12]?
**A.** Its Kd is 8.3 µM.

**Q.** And the Kd [13]?
**A.** Its Kd is 53 µM.

**Q.** And the Kd [14]?
**A.** Its Kd is 8.3 µM.

**Q.** What about the Kd [15] of the same binder?
**A.** Its Kd is 53 µM.

**Q.** And the Kd [16]?
**A.** The Kd was 850 nM.
